This note sets out measurements from patent publication US20220081480A1.

Broadly, the Kd is the free concentration of one partner at which half of the binding sites on the other are occupied at equilibrium, for simple one-to-one binding. Higher therefore signals lower affinity.

In one assay the target is FcRn (UniProt P55899). Description: BLI (Octet), steady state. (In BLI a coated tip is dipped into the sample, and binding shifts an interference pattern.)
The target of another assay is FCγRIIa (CD32a)_H131 (UniProt P12318). Description: BLI (Octet), steady state.
Chain of FCγRIIa (CD32a)_H131 (P12318 36-218 limits assumed): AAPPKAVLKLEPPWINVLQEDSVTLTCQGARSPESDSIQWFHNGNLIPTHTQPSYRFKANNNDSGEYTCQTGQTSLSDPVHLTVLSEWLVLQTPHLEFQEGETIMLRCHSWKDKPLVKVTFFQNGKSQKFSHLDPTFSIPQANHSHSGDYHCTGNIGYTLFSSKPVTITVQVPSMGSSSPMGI
The next assay has as its target FCγRI (CD64) (UniProt P12314). The assay can be described thus: BLI (Octet), antibody on FAB2G tips, kinetic fit.

In turn, “hu14.18 IgG2h (FN-AQ, K322A)-delK (antibody)” displayed a Kd with FcRn of 825 nM.

As for hu14.18-huIgG1-delK (antibody), the Kd was 670 nM with FCγRIIa (CD32a)_H131, 620 nM with FcRn and 1.8 nM with FCγRI (CD64).
